We go through 2 molecules from publication PMC7242440 (2020).

Assay [1] addresses Mpa (Mycobacterium tuberculosis) (UniProt P9WQN5). As to conditions: cited from earlier work.
The target in assay [2] is T1, Mpa (Mycobacterium tuberculosis, UniProt P9WQN5).
T1 chain: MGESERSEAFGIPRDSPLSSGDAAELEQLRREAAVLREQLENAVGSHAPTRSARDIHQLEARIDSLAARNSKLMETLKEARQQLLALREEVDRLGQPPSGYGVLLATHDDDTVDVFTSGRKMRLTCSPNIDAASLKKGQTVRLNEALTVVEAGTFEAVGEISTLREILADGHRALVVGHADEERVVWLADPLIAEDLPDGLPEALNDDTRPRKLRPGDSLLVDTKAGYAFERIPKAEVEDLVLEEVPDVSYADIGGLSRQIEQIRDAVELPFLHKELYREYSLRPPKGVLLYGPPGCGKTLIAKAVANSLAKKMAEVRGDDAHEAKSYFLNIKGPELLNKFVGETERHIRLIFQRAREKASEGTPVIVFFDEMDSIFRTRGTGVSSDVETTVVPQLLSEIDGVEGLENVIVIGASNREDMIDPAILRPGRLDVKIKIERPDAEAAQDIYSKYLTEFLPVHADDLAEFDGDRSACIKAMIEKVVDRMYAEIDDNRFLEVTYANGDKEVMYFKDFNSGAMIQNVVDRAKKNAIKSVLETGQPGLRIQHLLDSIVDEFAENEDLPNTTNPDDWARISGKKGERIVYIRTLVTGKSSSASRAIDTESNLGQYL
Kind of assay: NMR.

The Kd is the constant that tells how readily two partners part at equilibrium. Take Pup (from UniProt P9WHN5): the Kd in assay [1] was 3.5 µM.

B1: Pup (protein)
chain: MAQEQTKRGGGGGDDDDIAGSTAAGQERREKLTEETDDLLDEIDDVLEENAEDFVRAYVQKGGQ
As to B1, the Kd in assay [2] was approximately 28 µM.
